According to US20200199241A1 (Chugai, published 2020):
Changes are numbered by the printed parent chain. In names and notes the source's numbering stands.

B1: GpH7-B3 variant G237V/GpL16-k0 (antibody, human IgG1)
heavy: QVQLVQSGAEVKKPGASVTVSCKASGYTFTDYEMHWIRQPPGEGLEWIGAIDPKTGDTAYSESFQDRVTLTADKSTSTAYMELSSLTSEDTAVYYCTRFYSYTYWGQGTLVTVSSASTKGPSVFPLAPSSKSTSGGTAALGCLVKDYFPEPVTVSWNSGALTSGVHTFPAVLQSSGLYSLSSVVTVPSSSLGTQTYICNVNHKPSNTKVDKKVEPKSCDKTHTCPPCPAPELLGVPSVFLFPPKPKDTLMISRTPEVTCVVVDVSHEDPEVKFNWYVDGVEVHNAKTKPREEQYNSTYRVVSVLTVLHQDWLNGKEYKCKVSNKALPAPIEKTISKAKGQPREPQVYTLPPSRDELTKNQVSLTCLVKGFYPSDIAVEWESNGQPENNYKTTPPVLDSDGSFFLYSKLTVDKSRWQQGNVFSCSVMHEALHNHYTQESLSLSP
light: DIVMTQSPLSLPVTPGEPASISCQASESLVHSNRNTYLHWYLQKPGQSPQLLIYKVSNRFSGVPDRFSGSGSGTDFTLKISRVEAEDVGVYYCSQNTHVPPTFGQGTKVEIE
notes: copies: 2 + 2
B2: GpH7-B3 variant L234A/GpL16-k0 (antibody, human IgG1)
heavy: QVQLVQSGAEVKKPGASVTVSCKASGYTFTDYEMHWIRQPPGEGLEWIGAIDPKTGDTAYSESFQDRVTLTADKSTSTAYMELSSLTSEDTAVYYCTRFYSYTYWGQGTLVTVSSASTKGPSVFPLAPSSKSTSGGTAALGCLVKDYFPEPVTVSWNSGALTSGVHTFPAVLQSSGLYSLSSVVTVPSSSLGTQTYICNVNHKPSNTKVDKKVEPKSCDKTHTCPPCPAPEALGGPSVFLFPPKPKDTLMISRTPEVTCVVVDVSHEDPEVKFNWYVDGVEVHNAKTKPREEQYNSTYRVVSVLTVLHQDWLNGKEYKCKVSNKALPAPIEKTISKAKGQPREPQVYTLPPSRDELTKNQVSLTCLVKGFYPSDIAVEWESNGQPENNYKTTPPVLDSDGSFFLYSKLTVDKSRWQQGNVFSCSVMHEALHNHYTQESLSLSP
light: B1 light
notes: copies: 2 + 2
B3: GpH7-B3 variant L234D/GpL16-k0 (antibody, human IgG1)
heavy: not shown
light: B1 light
notes: copies: 2 + 2
B4: GpH7-B3 variant L234E/GpL16-k0 (antibody, human IgG1)
heavy: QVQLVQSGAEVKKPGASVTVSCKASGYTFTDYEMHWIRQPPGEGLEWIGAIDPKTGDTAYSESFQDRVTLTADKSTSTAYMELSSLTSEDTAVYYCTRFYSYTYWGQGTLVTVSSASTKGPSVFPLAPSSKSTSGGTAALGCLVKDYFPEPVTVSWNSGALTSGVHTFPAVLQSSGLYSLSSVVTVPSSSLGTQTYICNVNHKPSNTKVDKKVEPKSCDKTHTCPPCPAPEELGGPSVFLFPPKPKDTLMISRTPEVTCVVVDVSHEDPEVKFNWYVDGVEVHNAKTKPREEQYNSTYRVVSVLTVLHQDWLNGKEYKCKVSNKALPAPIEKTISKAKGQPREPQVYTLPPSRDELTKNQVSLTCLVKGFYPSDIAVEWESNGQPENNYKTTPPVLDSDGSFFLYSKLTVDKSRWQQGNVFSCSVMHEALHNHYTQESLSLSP
light: B1 light
notes: copies: 2 + 2
B5: GpH7-B3 variant L234F/GpL16-k0 (antibody, human IgG1)
heavy: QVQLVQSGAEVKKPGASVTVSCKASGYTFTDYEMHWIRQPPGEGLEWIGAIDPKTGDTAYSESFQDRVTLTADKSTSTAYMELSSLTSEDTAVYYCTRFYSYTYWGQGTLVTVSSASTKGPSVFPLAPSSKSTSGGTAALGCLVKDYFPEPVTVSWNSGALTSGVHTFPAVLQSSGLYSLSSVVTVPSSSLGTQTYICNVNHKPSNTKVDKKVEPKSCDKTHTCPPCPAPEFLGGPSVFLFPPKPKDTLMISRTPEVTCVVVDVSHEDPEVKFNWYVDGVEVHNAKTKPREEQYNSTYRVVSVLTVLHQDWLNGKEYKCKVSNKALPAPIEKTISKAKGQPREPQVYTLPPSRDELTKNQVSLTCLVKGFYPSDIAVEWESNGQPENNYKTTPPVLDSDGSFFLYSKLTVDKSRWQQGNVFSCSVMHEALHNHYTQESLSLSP
light: B1 light
notes: copies: 2 + 2
B6: GpH7-B3 variant L234H/GpL16-k0 (antibody, human IgG1)
heavy: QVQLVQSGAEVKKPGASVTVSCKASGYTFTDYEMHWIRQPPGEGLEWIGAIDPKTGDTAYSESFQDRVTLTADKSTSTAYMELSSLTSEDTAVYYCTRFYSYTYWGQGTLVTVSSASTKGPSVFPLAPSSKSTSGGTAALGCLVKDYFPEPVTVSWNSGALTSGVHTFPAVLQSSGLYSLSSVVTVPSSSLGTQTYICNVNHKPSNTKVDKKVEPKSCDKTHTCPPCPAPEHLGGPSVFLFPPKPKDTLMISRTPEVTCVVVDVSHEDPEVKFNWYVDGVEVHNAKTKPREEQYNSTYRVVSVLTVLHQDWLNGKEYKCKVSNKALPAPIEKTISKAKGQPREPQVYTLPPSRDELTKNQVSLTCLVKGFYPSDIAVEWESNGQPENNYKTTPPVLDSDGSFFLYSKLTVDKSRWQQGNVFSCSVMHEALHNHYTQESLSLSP
light: B1 light
notes: copies: 2 + 2
B7: GpH7-B3 variant L234K/GpL16-k0 (antibody, human IgG1)
heavy: not shown
light: B1 light
notes: copies: 2 + 2
B8: GpH7-B3 variant L234M/GpL16-k0 (antibody, human IgG1)
heavy: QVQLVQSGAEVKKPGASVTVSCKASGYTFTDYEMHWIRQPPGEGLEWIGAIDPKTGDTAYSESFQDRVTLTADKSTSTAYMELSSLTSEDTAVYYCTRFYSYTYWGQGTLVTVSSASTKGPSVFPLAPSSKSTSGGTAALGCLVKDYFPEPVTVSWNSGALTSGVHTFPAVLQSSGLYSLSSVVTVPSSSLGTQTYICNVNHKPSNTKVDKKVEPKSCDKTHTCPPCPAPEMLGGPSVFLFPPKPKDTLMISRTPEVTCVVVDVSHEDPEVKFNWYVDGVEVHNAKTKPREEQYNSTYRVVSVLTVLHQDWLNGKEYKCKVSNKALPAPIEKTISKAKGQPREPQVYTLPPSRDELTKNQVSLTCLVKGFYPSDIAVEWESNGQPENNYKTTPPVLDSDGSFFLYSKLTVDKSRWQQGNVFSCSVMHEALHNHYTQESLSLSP
light: B1 light
notes: copies: 2 + 2
B9: GpH7-B3 variant L234N/GpL16-k0 (antibody, human IgG1)
heavy: not shown
light: B1 light
notes: copies: 2 + 2
B10: GpH7-B3 variant L234P/GpL16-k0 (antibody, human IgG1)
heavy: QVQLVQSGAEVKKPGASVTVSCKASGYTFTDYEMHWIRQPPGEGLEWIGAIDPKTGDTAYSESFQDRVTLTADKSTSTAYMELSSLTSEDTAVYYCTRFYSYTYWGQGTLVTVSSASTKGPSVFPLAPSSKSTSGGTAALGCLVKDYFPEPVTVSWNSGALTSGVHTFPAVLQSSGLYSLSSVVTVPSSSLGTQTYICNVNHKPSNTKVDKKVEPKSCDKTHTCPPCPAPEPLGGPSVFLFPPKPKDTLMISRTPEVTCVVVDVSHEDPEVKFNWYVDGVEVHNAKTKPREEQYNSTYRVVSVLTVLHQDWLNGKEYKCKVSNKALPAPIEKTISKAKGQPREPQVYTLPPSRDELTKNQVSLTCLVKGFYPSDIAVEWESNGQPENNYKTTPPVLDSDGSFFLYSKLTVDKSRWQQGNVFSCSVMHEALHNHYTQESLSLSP
light: B1 light
notes: copies: 2 + 2
B11: GpH7-B3 variant L234Q/GpL16-k0 (antibody, human IgG1)
heavy: not shown
light: B1 light
notes: copies: 2 + 2
B12: GpH7-B3 variant L234R/GpL16-k0 (antibody, human IgG1)
heavy: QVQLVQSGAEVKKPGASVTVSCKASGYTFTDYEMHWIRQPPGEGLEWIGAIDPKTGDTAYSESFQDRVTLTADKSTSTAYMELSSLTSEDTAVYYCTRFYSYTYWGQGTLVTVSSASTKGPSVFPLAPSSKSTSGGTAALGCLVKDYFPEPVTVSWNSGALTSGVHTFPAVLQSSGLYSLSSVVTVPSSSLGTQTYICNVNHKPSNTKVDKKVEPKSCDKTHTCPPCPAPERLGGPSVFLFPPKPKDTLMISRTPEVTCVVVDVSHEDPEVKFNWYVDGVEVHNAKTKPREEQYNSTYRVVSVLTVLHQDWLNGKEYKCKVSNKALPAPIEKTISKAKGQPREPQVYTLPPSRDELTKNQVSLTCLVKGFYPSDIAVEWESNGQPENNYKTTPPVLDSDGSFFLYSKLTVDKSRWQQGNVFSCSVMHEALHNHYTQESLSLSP
light: B1 light
notes: copies: 2 + 2
B13: GpH7-B3 variant L234S/GpL16-k0 (antibody, human IgG1)
heavy: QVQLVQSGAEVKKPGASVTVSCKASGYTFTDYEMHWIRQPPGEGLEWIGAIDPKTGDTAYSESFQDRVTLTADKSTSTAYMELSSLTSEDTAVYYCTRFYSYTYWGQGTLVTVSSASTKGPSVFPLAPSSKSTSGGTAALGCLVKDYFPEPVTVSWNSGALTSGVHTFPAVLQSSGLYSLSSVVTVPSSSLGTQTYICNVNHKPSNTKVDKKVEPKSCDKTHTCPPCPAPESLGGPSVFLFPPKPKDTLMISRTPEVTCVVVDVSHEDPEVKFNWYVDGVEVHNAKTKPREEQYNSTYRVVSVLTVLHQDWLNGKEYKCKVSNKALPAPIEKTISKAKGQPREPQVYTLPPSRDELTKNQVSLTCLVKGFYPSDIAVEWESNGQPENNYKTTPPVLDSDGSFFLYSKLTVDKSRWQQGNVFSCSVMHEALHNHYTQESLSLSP
light: B1 light
notes: copies: 2 + 2
B14: GpH7-B3 variant L234T/GpL16-k0 (antibody, human IgG1)
heavy: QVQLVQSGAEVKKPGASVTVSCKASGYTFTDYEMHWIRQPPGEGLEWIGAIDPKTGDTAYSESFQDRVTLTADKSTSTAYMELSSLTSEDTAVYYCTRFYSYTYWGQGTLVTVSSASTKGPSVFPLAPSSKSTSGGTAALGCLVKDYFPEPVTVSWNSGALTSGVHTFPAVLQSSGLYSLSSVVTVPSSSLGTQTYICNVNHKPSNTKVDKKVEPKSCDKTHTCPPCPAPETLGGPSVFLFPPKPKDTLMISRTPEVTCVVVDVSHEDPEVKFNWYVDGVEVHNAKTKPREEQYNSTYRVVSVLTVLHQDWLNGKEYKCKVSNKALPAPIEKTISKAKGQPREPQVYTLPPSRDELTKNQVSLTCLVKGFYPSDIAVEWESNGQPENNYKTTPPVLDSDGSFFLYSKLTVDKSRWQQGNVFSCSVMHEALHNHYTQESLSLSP
light: B1 light
notes: copies: 2 + 2
B15: GpH7-B3 variant L234W/GpL16-k0 (antibody, human IgG1)
heavy: not shown
light: B1 light
notes: copies: 2 + 2

Biological target: T1, human FcγRIIa(R) (human, UniProt P12318 36-217)
T1 construct: also called FcgRIIaR; FcγRIIa type R
T1 chain: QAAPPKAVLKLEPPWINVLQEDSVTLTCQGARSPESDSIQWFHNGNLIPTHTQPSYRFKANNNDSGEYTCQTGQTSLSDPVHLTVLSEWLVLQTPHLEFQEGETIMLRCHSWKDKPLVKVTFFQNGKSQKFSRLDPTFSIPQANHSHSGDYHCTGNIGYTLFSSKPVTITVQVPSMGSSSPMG
Assay: SPR (Biacore);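 further: antibody variants captured on sensor chip, Fcγ receptor flowed over at 25 °C, bound receptor normalized to amount of captured antibody, expressed relative to reference antibody set as 100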
Protocol: (§1) Interaction between each modified antibody and Fcγ receptor prepared in the manner described above was analyzed using the BIACORE™ T100 surface plasmon resonance system (GE Healthcare), BIACORE™ T200 surface plasmon resonance system (GE Healthcare), BIACORE™ A100 surface plasmon resonance system or BIACORE™ 4000 surface plasmon resonance system. HBS-EP+ (GE Healthcare) was used for the running buffer, and measurements were carried out at 25° C. The chips used were chips in which antigen peptides, Protein A (Thermo Scientific), Protein A/G (Thermo Scientific) or Protein L (ACTIGEN® protein (Alltech or BioVision) were immobilized on the Series S Sensor Chip CMS (GE Healthcare) or Series S Sensor Chip CM4 (GE Healthcare) by amine coupling, or chips in which preliminarily biotinylated antigen peptides were allowed to interact and then immobilized on the Series S Sensor Chip SA (certified) (GE Healthcare). The target antibodies were captured on these sensor chips, Fcγ receptor diluted with the running buffer was allowed to interact, followed by measurement of the amount of bound antibody. The amounts bound were compared between antibodies. However, since the amount of Fcγ receptor bound depends on the amount of captured antibody, the values used for comparison were first corrected by dividing the amount of Fcγ receptor bound by the captured amount of each antibody. Through reaction with 10 mM glycine-HCl at pH 1.5, the sensor chips were regenerated by washing off antibody captured on the sensor chips and used repeatedly.
(§2) Binding strength was evaluated according to the following method based on the results of analyzing the interaction with each FcγR. […] That value was then further multiplied by 100, and the resulting value was used as an indicator of relative binding activity to each FcγR.

Binder	relative binding activity
B1	55 % of GpH7-B3/GpL16-k0
B2	26 % of GpH7-B3/GpL16-k0
B3	51 % of GpH7-B3/GpL16-k0
B4	48 % of GpH7-B3/GpL16-k0
B5	52 % of GpH7-B3/GpL16-k0
B6	21 % of GpH7-B3/GpL16-k0
B7	-2 % of GpH7-B3/GpL16-k0
B8	65 % of GpH7-B3/GpL16-k0
B9	36 % of GpH7-B3/GpL16-k0
B10	41 % of GpH7-B3/GpL16-k0
B11	18 % of GpH7-B3/GpL16-k0
B12	0 % of GpH7-B3/GpL16-k0
B13	20 % of GpH7-B3/GpL16-k0
B14	33 % of GpH7-B3/GpL16-k0
B15	64 % of GpH7-B3/GpL16-k0

Biological target: T2, human FcγRIIa(H) (human, UniProt P12318 36-217)
T2 construct: also called FcgRIIaH; FcγRIIa type H
T2 sequence: T1 chain with R133H
Assay: SPR (Biacore);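 further: antibody variants captured on sensor chip, Fcγ receptor flowed over at 25 °C, bound receptor normalized to amount of captured antibody, expressed relative to reference antibody set as 100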
Protocol: as §1, §2

Binder	relative binding activity
B1	10 % of GpH7-B3/GpL16-k0
B2	25 % of GpH7-B3/GpL16-k0
B3	18 % of GpH7-B3/GpL16-k0
B4	21 % of GpH7-B3/GpL16-k0
B5	62 % of GpH7-B3/GpL16-k0
B6	29 % of GpH7-B3/GpL16-k0
B7	1 % of GpH7-B3/GpL16-k0
B8	57 % of GpH7-B3/GpL16-k0
B9	35 % of GpH7-B3/GpL16-k0
B10	45 % of GpH7-B3/GpL16-k0
B11	16 % of GpH7-B3/GpL16-k0
B12	2 % of GpH7-B3/GpL16-k0
B13	21 % of GpH7-B3/GpL16-k0
B14	30 % of GpH7-B3/GpL16-k0
B15	63 % of GpH7-B3/GpL16-k0

Biological target: T3, human FcγRIa (human, UniProt P12314 16-292, limits assumed)
T3 construct: also called FcgRIa; FcγRI (CD64)
Assay: SPR (Biacore);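 further: antibody variants captured on sensor chip, Fcγ receptor flowed over at 25 °C, bound receptor normalized to amount of captured antibody, expressed relative to reference antibody set as 100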
Protocol: as §1, §2

T3 sequence (P12314 16-292 limits assumed): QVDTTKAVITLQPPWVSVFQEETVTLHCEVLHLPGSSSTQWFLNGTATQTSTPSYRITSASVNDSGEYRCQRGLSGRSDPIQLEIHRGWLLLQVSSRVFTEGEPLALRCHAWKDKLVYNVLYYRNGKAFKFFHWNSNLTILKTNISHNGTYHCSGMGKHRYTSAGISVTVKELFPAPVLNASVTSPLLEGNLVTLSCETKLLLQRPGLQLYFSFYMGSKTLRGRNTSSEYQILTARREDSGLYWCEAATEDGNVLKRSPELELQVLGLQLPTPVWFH

Binder	relative binding activity
B1	8 % of GpH7-B3/GpL16-k0
B2	79 % of GpH7-B3/GpL16-k0
B3	31 % of GpH7-B3/GpL16-k0
B4	82 % of GpH7-B3/GpL16-k0
B5	96 % of GpH7-B3/GpL16-k0
B6	65 % of GpH7-B3/GpL16-k0
B7	54 % of GpH7-B3/GpL16-k0
B8	100 % of GpH7-B3/GpL16-k0
B9	67 % of GpH7-B3/GpL16-k0
B10	83 % of GpH7-B3/GpL16-k0
B11	80 % of GpH7-B3/GpL16-k0
B12	50 % of GpH7-B3/GpL16-k0
B13	63 % of GpH7-B3/GpL16-k0
B14	93 % of GpH7-B3/GpL16-k0
B15	94 % of GpH7-B3/GpL16-k0

Biological target: T4, human FcγRIIIa(F) (human, UniProt P08637 17-208, limits assumed)
T4 construct: also called FcgRIIIaF; allotype F158
Assay: SPR (Biacore);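 further: antibody variants captured on sensor chip, Fcγ receptor flowed over at 25 °C, bound receptor normalized to amount of captured antibody, expressed relative to reference antibody set as 100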
Protocol: as §1, §2

T4 sequence (P08637 other isoform, or with tags, fused parts or gaps limits assumed): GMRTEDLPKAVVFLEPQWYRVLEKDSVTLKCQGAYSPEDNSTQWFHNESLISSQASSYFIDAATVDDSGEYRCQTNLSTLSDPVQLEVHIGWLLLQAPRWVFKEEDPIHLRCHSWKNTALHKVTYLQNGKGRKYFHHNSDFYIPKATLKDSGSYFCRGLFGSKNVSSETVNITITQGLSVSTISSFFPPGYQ

Binder	relative binding activity
B1	2 % of GpH7-B3/GpL16-k0
B2	22 % of GpH7-B3/GpL16-k0
B3	51 % of GpH7-B3/GpL16-k0
B4	63 % of GpH7-B3/GpL16-k0
B5	49 % of GpH7-B3/GpL16-k0
B6	32 % of GpH7-B3/GpL16-k0
B7	1 % of GpH7-B3/GpL16-k0
B8	50 % of GpH7-B3/GpL16-k0
B9	47 % of GpH7-B3/GpL16-k0
B10	45 % of GpH7-B3/GpL16-k0
B11	25 % of GpH7-B3/GpL16-k0
B12	4 % of GpH7-B3/GpL16-k0
B13	22 % of GpH7-B3/GpL16-k0
B14	30 % of GpH7-B3/GpL16-k0
B15	36 % of GpH7-B3/GpL16-k0

Biological target: T5, human FcγRIIb (human, UniProt P31994 43-217, limits assumed)
T5 construct: also called FcgRIIb
T5 sequence: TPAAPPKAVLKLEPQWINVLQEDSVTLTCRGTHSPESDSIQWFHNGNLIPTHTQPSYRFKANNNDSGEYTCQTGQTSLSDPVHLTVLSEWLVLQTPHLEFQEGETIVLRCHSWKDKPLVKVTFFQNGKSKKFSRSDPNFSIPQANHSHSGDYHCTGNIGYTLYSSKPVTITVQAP
Assay: SPR (Biacore)
Protocol: as §1, §2

Binder	relative binding activity
B1	12 % of GpH7-B3/GpL16-k0
B2	24 % of GpH7-B3/GpL16-k0
B3	77 % of GpH7-B3/GpL16-k0
B4	62 % of GpH7-B3/GpL16-k0
B5	68 % of GpH7-B3/GpL16-k0
B6	24 % of GpH7-B3/GpL16-k0
B7	-3 % of GpH7-B3/GpL16-k0
B8	53 % of GpH7-B3/GpL16-k0
B9	44 % of GpH7-B3/GpL16-k0
B10	33 % of GpH7-B3/GpL16-k0
B11	19 % of GpH7-B3/GpL16-k0
B12	0 % of GpH7-B3/GpL16-k0
B13	19 % of GpH7-B3/GpL16-k0
B14	27 % of GpH7-B3/GpL16-k0
B15	90 % of GpH7-B3/GpL16-k0
